Experimental data taken from US8962697.

What was measured:
LAR-7048 = molecular target: T1, LAR-7048
T1 chain: PRRICV

LAR-7047 = molecular target: T2, LAR-7047
T2 chain: VFFRRQTA

LAR-7009 = molecular target: T3, LAR-7009
T3 chain: PRRRRPRQITA

| Protein | degradation of the control peptide (LAR-7048) | degradation of the control peptide (LAR-7047) | hydrolysis of the peptide substrate, fragments by mass spectrometry (LAR-7009) |
| --- | --- | --- | --- |
| Aureolysin (protein) AAATGTGKGVLGDTKDININSIDGGFSLEDLTHQGKLSAYNFNDQTGQATLITNEDENFVKDDQRAGVDANYYAKQTYDYYKNTFGRESYDNHGSPIVSLTHVNHYGGQDNRNNAAWIGDKMIYGDGDGRTFTNLSGANDVVAHELTHGVTQETANLEYKDQSGALNESFSDVFGYFVDDEDFLMGEDVYTPGKEGDALRSMSNPEQFGQPSHMKDYVYTEKDNGGVHTNSGIPNKAAYNVIQAIGKSKSEQIYYRALTEYLTSNSNFKDCKDALYQAAKDLYDEQTAEQVYEAWNEVGVE | No degradation was observed in these systems | No degradation was observed in these systems |  |
| Matrix Metalloproteinase-9 (protein) MRTPRCGVPDLGRFQTFEGDLKWHHHNITYWIQNYSEDLPRAVIDDAFARAFALWSAVTPLTFTRVYSRDADIVIQFGVAEHGDGYPFDGKDGLLAHAFPPGPGIQGDAHFDDDELWSLGKGVVVPTRFGNADGAACHFPFIFEGRSYSACTTDGRSDGLPWCSTTANYDTDDRFGFCPSERLYTQDGNADGKPCQFPFIFQGQSYSACTTDGRSDGYRWCATTANYDRDKLFGFCPTRADSTVMGGNSAGELCVFPFTFLGKEYSTCTSEGRGDGRLWCATTSNFDSDKKWGFCPDQGYSLFLVAAHEFGHALGLDHSSVPEALMYPMYRFTEGPPLHKDDVNGIRHLYGPRPEPEPRPPTTTTPQPTAPPTVCPTGPPTVHPSERPTAGPTGPPSAGPTGPPTAGPSTATTVPLSPVDDACNVNIFDAIAEIGNQLYLFKDGKYWRFSEGRGSRPQGPFLIADKWPALPRKLDSVFEERLSKKLFFFSGRQVWVYTGASVLGPRRLDKLGLGADVAQVTGALRSGRGKMLLFSGRRLWRFDVKAQMVDPRSASEVDRMFPGVPLDTHDVFQYREKAYFCQDRFYWRVSSRSELNQVDQVGYVTYDILQCPED | No degradation was observed in these systems | No degradation was observed in these systems | Degradation of LAR-7009 ... produced specific fragment pick: 1121.66 corresponding to [..] sequence |
